Here are results for one substance from paper PMC7752801.

In the assay the target is streptolysin O (SLO) isolated from group A Streptococcus (Streptococcus pyogenes (group A Streptococcus)) (UniProt P0C0I3). Briefly: other fluorescence titration; SLO at 2.0×10^−8 M mixed with HSA from 0 M to 4.0×10^−8 M; fluorescence between 300 nm and 400 nm, excitation 280; apparent Kd from Eq. 1.

pKd: −log10 of the molar value.

Sequence of UniProt P0C0I3 (P0C0I3 34-571): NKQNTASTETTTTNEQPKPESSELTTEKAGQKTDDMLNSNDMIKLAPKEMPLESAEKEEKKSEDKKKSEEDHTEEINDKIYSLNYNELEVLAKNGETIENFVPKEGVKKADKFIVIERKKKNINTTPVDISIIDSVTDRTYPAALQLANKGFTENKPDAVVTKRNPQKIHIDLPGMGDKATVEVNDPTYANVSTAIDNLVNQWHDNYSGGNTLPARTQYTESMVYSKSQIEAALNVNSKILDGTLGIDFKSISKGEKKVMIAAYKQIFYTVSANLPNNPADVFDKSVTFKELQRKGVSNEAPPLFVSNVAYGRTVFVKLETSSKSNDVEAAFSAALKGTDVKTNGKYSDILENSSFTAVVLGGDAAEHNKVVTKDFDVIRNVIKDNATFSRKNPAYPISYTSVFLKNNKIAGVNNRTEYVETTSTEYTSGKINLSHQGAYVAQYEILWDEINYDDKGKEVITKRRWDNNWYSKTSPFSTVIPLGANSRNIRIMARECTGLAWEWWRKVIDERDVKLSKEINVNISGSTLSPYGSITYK

As usually defined, the pKd is the negative decadic logarithm of the Kd, by convention in mol/L. As for “L305A/F374A 6×His-tag-HSA (double mutant Leu305Ala/Phe374Ala) (natural protein)”, the pKd was 8.14.
